Experimental data: patent US11433139B2, “Peptide vaccines against interleukin-31” (Zoetis Services LLC, priority 2018, dated 2022)

What was measured:
canine IL-31 [1] = target: T1, canine IL-31 (Canis lupus familiaris, UniProt A0A8I3S3D1); assay: Inhibition of canine IL-31 induced pSTAT3 signaling in canine DH-82 and feline FCWF4 cells; type: cell-based
T1 construct: made in house; host or cells: CHO cells (CHROMOS ACE system)
T1 sequence (A0A8I3S3D1 24-159): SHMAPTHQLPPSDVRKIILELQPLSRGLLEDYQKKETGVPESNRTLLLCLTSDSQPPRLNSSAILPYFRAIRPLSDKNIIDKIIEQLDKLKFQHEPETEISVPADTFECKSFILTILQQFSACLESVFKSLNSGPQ
Method in brief: (§1)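 DH-82 cells primed with canine IFN-γ 10 ng/mL for 24 h, FCWF4 with feline IFN-γ 125 ng/mL for 96 h, then serum-starved 2 h. mAb pre-incubated 1 h with 1 μg/mL canine or 0.2 μg/mL feline IL-31, cells stimulated 5 min; pSTAT3 by AlphaLISA SureFire, IC50 as half-maximal signalling reduction.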

canine IL-31 [2] = assay: Biacore binding, single test concentration of antibody, canine IL-31 surface
Procedure: (§2) For the indirect ELISA, binding (ELISA OD) to wildtype feline IL-31 and a feline IL-31 15H05 mutant which had mutations in the monoclonal antibody 15H05 epitope region was assessed. To confirm binding, biacore analysis was performed using canine, feline, equine, human, the feline 15H05 mutant, and feline 11E12 mutant IL-31 proteins as surfaces and a single test concentration of antibody. The feline IL-31 11E12 mutant had mutations in the monoclonal antibody 11E12 epitope region.
(§3) For the indirect ELISA method, antibody binding to wildtype and feline IL-31 15H05 mutant proteins was assessed. […] In comparison, the 11E12 antibody bound to the wild-type feline IL-31 and its binding was not impacted by the mutations in the 15H05 epitope region as evidenced by the data in FIG. 4. To confirm binding, biacore analysis was performed using canine, feline, equine, human, feline 15H05 mutant, and feline 11E12 mutant IL-31 proteins as surfaces and a single test concentration of antibody. Similar to ELISA observations, all antibodies tested bound to wildtype feline IL-31. In agreement with the data described above in this section, mouse antibodies 11 E12 and 15H05 both bound to canine and feline IL-31 surfaces. […] From this group of nine fully canine antibodies, only ZIL1 and ZIL9 cross-reacted with equine IL-31. Of note, antibody 15H05 was the only one of all assayed herein that bound to canine, feline, and equine IL-31 indicating some level of epitope conservation across the three species. In contrast, none of the antibodies described herein bound to human IL-31. Additional biacore surfaces were used to verify ELISA observations showing differential binding of antibodies to wildtype feline IL-31 and two proteins with mutations in the 15H05 (15H05 mutant) or 11 E12 (11E12 mutant) epitopes. […] Differing results can be attributed to differences in the two assay methodologies.

canine IL-31 [3] = assay: Competition binding assessment using Biacore, canine IL-31 surface; conditions: sequential addition of 15H05 and 11E12, Biacore
Procedure: (§4) To further characterize the IL-31 epitopes bound by mAbs 15H05 and 11 E12, blocking experiments were performed using biacore where the surface containing the IL-31 protein was generated followed by sequential addition of antibodies. FIGS. 7A and 7B show the relative binding of each antibody to IL-31 following capture of 11E12 or 15H05. The columns labeled HBS-EP (assay buffer) indicate the maximum signal obtained from each antibody binding to the IL-31 surface alone without competition. […] The sensograms related to FIG. 7A show the disassociation kinetics of both antibodies are very slow on this newly formed biacore surface therefore no additional occupation of binding sites can occur with addition of the same antibody (data not shown).

feline IL-31 [4] = assay: Affinity of anti-IL-31 antibodies by surface plasmon resonance (Biacore), feline IL-31 surface; type: binding; conditions: IL-31 conjugated to the surface (FIG. 2)
Method in brief: (§5)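 IL-31 amine-coupled (NHS/EDC) at 5 μg/mL directly onto the SPR chip, quenched with ethanolamine; candidate mAbs flowed over as analyte. KD from 1:1 model fits; values below 1×10^−11 M are under the instrument's lower quantitation limit.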
Target sequence in this assay (as listed by the source): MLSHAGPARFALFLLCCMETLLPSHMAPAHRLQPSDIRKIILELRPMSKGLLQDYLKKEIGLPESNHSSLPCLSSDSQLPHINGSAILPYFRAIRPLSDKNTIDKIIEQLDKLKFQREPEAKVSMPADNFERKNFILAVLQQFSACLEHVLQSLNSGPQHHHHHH

wildtype feline IL-31 = assay: Biacore binding, single test concentration of antibody, feline IL-31 surface
Procedure: as §2
For the indirect ELISA method, antibody binding to wildtype and feline IL-31 15H05 mutant proteins was assessed. […] In comparison, the 11E12 antibody bound to the wild-type feline IL-31 and its binding was not impacted by the mutations in the 15H05 epitope region as evidenced by the data in FIG. 4. To confirm binding, biacore analysis was performed using canine, feline, equine, human, feline 15H05 mutant, and feline 11E12 mutant IL-31 proteins as surfaces and a single test concentration of antibody. Similar to ELISA observations, all antibodies tested bound to wildtype feline IL-31. In agreement with the data described above in this section, mouse antibodies 11 E12 and 15H05 both bound to canine and feline IL-31 surfaces. […] From this group of nine fully canine antibodies, only ZIL1 and ZIL9 cross-reacted with equine IL-31. […]

canine IL-31 [5] = assay: Affinity of anti-IL-31 antibodies by surface plasmon resonance (Biacore), canine IL-31 surface; type: binding; conditions: IL-31 conjugated to the surface (FIG. 2)
Method in brief: as §5

feline IL-31 [6] = assay: Inhibition of feline IL-31 induced pSTAT3 signaling in feline FCWF4 macrophage-like cells; type: cell-based; conditions: 0.2 μg/mL feline IL-31, pSTAT3, FCWF4 cells (FIG. 3)
Method in brief: as §1

feline IL-31 [7] = assay: Inhibition of feline IL-31 induced pSTAT3 signaling in canine DH-82 cells; type: cell-based; conditions: feline IL-31, pSTAT3, canine DH82 cells (FIG. 3)
Method in brief: as §1
Target sequence in this assay (as listed by the source): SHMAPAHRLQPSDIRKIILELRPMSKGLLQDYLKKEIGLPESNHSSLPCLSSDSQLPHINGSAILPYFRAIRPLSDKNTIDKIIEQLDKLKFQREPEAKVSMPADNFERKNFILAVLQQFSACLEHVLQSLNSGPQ

[8] = test system: feline 15H05 mutant IL-31; assay: Biacore binding, single test concentration of antibody, feline 15H05 mutant IL-31 surface
Procedure: as §2, §3

feline IL-31 [9] = assay: Competition binding assessment using Biacore, feline IL-31 surface; conditions: sequential addition of 15H05 and 11E12, Biacore
Procedure: as §4
Binding of additional antibody in the presence of the same antibody is a result of the increased off rate due to the poorer quality of the surface used. Increased off rates can be seen and compared to the KD values from newly formed feline IL-31 surfaces in FIG. 2.

Sequence of canine IL-31 (as listed by the source): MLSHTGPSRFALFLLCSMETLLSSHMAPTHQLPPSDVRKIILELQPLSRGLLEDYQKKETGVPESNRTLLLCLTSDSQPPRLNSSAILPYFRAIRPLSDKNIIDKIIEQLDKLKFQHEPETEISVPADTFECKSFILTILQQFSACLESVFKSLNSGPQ

B1: 15H05: mouse anti IL-31 monoclonal antibody, VH SEQ ID NO: 67, VL SEQ ID NO: 69 (antibody, listed as Mus musculus, V domains shown)
VH: QVQLQQSAAELARPGASVKMSCKTSGYTFTSYTIHWIKQRPGQGLEWIGNINPTSGYTENNQRFKDKTTLTVDRSSNTAYLQLHSLTSEDSAVYFCARWGFKYDGEWSFDVWGAGTTVTVSS
VL: DIQMNQSPSSLSASLGDTITVTCRASQGISIWLSWYQQKPGNIPKVLINKASNLHIGVPPRFSGSGSGTHFTLTITSLQPEDIATYYCLQSQTYPLTFGGGTKLEIN
Canine IL-31 [1]; canine IL-31, canine cells
  blocking of canine IL-31 signaling in canine cells: capable of blocking canine IL-31 signaling
Canine IL-31 [1]; canine IL-31, feline cells
  blocking of canine IL-31 signaling in feline cells: capable of blocking canine IL-31 signaling
Canine IL-31 [2]
  binding to canine IL-31 (Biacore): bound
Canine IL-31 [3]
  competition binding on canine IL-31: capable of binding to canine IL-31 in the presence of one another
Feline IL-31 [4]; listed as Mu-15H05
  affinity (KD) to feline IL-31: sub-nanomolar
Feline IL-31 [4]; listed as mAb 15H05
  affinity (KD) to feline IL-31: high
Wildtype feline IL-31
  binding to wildtype feline IL-31 (Biacore): bound
Canine IL-31 [5]; listed as Mu-15H05
  affinity (KD) to canine IL-31: sub-nanomolar
Canine IL-31 [5]; listed as mAb 15H05
  affinity (KD) to canine IL-31: high
Feline IL-31 [6]
  potency (IC50) against feline IL-31 in feline FCWF4 cells: slight increase in IC50
Feline IL-31 [7]
  potency (IC50) against feline IL-31 in canine DH82 cells: comparable
[8]
  binding to feline 15H05 mutant IL-31 (Biacore): did not bind
Feline IL-31 [9]
  competition binding on feline IL-31: no overlap in the epitope recognized
